Experimental data published in US20240115721A1 (Memorial Sloan Kettering, published 2024).

What was measured:
[1] = molecular target: T1, full-length cynomolgous DLL3 on transfected HEK293 cells (cynomolgous); assay: flow cytometry, HEK293 cells transfected with full-length cynomolgous DLL3, mAb 10 µg/ml
T1 construct: whole, on cells; also called 293 cyno DLL3
Experimental: (§1) The four monoclonal antibodies (6-G23-F, 2-C8-A, 7-I1-B and 10-O18-A) were tested for their ability to bind to mouse and cynomolgous DLL3 as well as endogenous human DLL3 by flow cytometry. For this purpose, HEK293 cells were transfected with plasmid DNA encoding full-length human, mouse or cynomolgous DLL3 and used in the experiment. Briefly 106 transfected HEK293 cells or NCI-H82 primary cells were added in FACS buffer PBS 0.5% BSA to the wells of a 96 well U bottom plate and purified monoclonal added to 10 μg/ml. After 30 minutes incubation at 4° C. the cells were washed 3 times in FACS buffer and incubated with a PE labelled F(ab)2 anti-mouse IgG H and L 2nd stage. After another 30 minutes incubation at 4° C. the cells were washed three times in FACS buffer and analyzed on the flow cytometer. Data are presented at the ratio of the Mean Fluorescent Intensity for the monoclonal divided by the background staining with the 2nd stage. As shown in the Table below, all of the monoclonal antibodies cross reacted with cynomolgous DLL3 and detected endogenous DLL3 on NCI H82 cells but only 6-G23-F and 7-I1-B bound to mouse DLL3.

[2] = molecular target: T2, endogenous human DLL3 on NCI-H82 cells (human, UniProt Q9NYJ7 27-618); assay: cell-based or functional assay
T2 sequence (looked up): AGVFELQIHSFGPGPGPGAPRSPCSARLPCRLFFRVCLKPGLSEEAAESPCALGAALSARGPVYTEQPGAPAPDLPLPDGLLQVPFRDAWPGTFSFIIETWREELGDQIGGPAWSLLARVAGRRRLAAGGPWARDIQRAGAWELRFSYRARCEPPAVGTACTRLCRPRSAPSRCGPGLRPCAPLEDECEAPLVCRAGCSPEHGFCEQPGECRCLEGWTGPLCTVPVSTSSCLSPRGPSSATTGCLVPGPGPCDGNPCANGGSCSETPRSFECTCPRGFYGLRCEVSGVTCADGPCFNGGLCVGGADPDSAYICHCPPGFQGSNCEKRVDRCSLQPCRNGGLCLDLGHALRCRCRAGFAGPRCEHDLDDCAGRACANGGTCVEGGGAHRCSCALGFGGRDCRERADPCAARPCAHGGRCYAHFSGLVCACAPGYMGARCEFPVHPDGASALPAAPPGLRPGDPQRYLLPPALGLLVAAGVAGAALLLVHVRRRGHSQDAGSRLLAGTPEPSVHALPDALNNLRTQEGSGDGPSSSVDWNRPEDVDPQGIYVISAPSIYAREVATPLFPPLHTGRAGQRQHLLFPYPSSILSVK

[3] = molecular target: T3, full-length human DLL3 on transfected HEK293 cells (human, UniProt Q9NYJ7 27-618); assay: flow cytometry, HEK293 cells transfected with full-length human DLL3, mAb 10 µg/ml
T3 construct: also called 293 hDLL3
T3 sequence: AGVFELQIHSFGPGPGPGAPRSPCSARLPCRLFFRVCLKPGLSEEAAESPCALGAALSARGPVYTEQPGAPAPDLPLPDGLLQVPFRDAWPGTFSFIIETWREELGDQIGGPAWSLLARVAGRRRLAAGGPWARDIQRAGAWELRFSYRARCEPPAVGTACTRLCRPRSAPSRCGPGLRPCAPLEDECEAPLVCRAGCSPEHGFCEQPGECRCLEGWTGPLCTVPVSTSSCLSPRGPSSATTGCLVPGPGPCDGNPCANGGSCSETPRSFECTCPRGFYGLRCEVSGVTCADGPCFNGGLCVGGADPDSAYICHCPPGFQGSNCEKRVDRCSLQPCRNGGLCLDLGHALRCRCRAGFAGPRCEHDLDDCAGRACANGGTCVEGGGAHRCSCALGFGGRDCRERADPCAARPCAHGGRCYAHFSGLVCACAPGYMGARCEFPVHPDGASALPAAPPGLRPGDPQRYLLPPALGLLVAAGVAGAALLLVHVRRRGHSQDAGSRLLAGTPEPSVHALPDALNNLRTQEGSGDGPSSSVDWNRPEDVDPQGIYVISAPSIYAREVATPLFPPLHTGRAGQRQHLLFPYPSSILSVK
Experimental: as §1

[4] = molecular target: T4, full-length mouse DLL3 on transfected HEK293 cells (mouse, UniProt O88516 33-584); assay: flow cytometry, HEK293 cells transfected with full-length mouse DLL3, mAb 10 µg/ml
T4 construct: also called 293 mDLL3
T4 sequence: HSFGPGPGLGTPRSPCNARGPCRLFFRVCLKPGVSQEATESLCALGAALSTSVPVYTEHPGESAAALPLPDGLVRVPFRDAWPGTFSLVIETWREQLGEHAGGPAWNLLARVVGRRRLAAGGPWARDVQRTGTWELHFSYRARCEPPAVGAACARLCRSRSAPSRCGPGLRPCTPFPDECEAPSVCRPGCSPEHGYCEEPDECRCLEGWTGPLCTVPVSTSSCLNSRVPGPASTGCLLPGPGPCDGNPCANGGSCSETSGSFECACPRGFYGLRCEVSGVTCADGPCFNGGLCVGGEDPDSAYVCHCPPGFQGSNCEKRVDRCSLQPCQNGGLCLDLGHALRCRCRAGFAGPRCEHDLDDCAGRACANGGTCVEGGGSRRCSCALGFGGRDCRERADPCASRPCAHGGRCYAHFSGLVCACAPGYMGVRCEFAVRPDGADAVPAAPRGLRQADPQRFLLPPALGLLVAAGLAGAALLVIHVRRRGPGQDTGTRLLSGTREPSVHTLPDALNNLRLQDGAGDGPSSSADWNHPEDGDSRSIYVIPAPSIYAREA
Experimental: as §1

[5] = molecular target: T2, endogenous human DLL3 on NCI-H82 cells; assay: cell-based or functional assay; remark: listed apart in the source
[6] = molecular target: T2, endogenous human DLL3 on NCI-H82 cells; assay: cell-based or functional assay; remark: listed apart in the source
[7] = molecular target: T2, endogenous human DLL3 on NCI-H82 cells; assay: flow cytometry, NCI-H82 cells (endogenous DLL3), mAb 10 µg/ml
Experimental: as §1

Binder	ratio of Mean Fluorescent Intensity (monoclonal / background staining with 2nd stage) [1]	MFI Ratio (4° C. plate / 37° C. plate), 4/37 internalization assay on NCI-H82 cells [2]	ratio of Mean Fluorescent Intensity (monoclonal / background staining with 2nd stage) [3]	ratio of Mean Fluorescent Intensity (monoclonal / background staining with 2nd stage) [4]	Dy light Dy658 Fluorescence (% of the Control Reference Monoclonal Antibody), quenching internalization assay on NCI-H82 cells [5] [%]	FAB ZAP % SC16 Max Killing, NCI-H82 cells [6] [%]	ratio of Mean Fluorescent Intensity (monoclonal / background staining with 2nd stage) [7]
6-G23-F (antibody, V domains shown, Hybridoma monoclonal from Ablexis AlivaMAb Kappa mice (human immunoglobulin repertoire); the antibody was captured on anti-mouse Fc sensors and detected with anti-mouse IgG / anti-mouse IgG1 reagents; It is not the recombinant human IgG1 form H6-G23-F; also called 6-G23-F (10 µg/ml)) VH: QVQLVQSGAEVKKPGASVKVSCKASGYTFTSYYIHWVRQAPGQGLEWMGIIDPSDGSTNYAQKFQGRVTMTRDTSTSTVYMELSSLRSEDTAVYYCARDREYNYYGLDVWGQGTTVTVSS VL: not shown	13.1	1.67	6.33	3.97	76.5	94	11.1
7-I1-B (antibody, V domains shown, Hybridoma monoclonal from Ablexis AlivaMAb Kappa mice; captured and detected with anti-mouse Fc / anti-mouse IgG reagents; also called 7-I1-B (10 µg/ml)) VH: EVQLVESGGGLVKPGGSLRLSCAASGFTFSNTWMSWVRQAPGKGLEWVGRIKSKSDGGTTDYAAPVKGRFTISRDDSKNTLYLQMNSLKTEDTAVYYCTQYYWNSFDYWGQGTLVTVSS VL: not shown	18.7	1.68	9.74	4.7	70.1	97	19.2
2-C8-A (antibody, V domains shown, Hybridoma monoclonal from Ablexis AlivaMAb Kappa mice; captured and detected with anti-mouse Fc / anti-mouse IgG reagents; It is not the recombinant human IgG1 form H2-C8-A; also called 2-C8-A (10 µg/ml)) VH: EVQLVESGGGLVQPGGSQRLSCAASGFTFSSYWMNWVRQAPGKGLEWVANIKEDGSEKYYVDSVKGRFTISRDNAKNSLYLQMNSLRAEDTAVYYCARDPGWAPFDYWGQGTLVTVSS VL: DIQMSQSPSSLSASVGDRVTITCRASQGISNYLAWFQQKPGKAPKSLIYAASSLQSGVPSKFSGSGSGTDFTLAISSLQPEDFATYYCQQYNSFPYTFGQGTTLEIK	15	1.76	7.71	1.5	62.9	89	11.9
10-O18-A (antibody, V domains shown, Hybridoma monoclonal from Ablexis AlivaMAb Kappa mice; captured and detected with anti-mouse Fc / anti-mouse IgG reagents; It is not the recombinant human IgG1 form H10-O18-A; also called 10-O18-A (10 µg/ml)) VH: QVQLQESGPGLVKPSETLSLTCTVSGGSINSYYWSWIRQPPGKGLEWIGYIFYSGITNYNPSLKSRVTISLDTSKNQFSLKLSSVTAADTAVYYCARIGVAGFYFDYWGQGTLVTVSS VL: not shown	9.85	1.56	4.74	0.99	–	–	9.4
